From paper PMC2764089 come the findings set out here.

In this assay the target is Spc105p-PrA (S. cerevisiae) (UniProt P53148). In words: SEC + other: glycerol-gradient velocity ultracentrifugation; whole cell extracts of wild-type strains expressing Spc105p-PrA or Kre28p-PrA (each fusion in its own strain); 10-40% glycerol gradients and HiPrep 16/60 Sephacryl S-500 HR column; fractions found by western blotting with anti-PrA. (Immunoblotting shows a protein as a band on a membrane.)
Chain of UniProt P53148 (P53148 whole entry, the tested form may be a part): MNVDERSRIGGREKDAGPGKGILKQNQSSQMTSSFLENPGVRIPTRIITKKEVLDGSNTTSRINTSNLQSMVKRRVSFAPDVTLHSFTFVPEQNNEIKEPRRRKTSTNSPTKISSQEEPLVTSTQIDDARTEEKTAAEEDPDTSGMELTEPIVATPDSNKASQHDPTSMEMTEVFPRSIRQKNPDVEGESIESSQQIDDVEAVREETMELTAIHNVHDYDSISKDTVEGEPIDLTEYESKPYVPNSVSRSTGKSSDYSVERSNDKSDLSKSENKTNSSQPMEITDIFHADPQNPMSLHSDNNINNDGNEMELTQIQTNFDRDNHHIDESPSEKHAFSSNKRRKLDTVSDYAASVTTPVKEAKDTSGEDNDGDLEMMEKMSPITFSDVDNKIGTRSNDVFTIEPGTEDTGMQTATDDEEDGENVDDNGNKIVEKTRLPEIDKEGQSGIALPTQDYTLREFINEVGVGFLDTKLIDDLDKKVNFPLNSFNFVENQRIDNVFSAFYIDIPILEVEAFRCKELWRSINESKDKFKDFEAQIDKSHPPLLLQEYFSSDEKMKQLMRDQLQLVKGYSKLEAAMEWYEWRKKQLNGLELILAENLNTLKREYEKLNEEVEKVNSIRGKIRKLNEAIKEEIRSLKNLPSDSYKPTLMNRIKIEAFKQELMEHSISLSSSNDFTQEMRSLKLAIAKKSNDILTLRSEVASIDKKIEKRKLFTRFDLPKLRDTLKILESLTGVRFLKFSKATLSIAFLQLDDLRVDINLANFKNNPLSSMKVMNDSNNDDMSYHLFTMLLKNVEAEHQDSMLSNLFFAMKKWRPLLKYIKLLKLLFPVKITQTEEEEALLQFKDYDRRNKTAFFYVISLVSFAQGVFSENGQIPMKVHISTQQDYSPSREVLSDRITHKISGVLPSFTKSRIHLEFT

In the case of “Kre28p-PrA (from UniProt Q04431 1-385) (natural protein)”, the stoichiometry N (Kre28p per Spc105p) was determined as 2.
